Measurements as given in US20200165308A1 (published 2020).

Molecular target: Netrin-1 (NET1) from Mus musculus lacking the C-terminal domain (NP_032770, aa: 24-457) (Mus musculus, UniProt O09118 24-457)
Experiment: solid-phase binding assay

Kd: 7.58 nM
B1: full-length ectodomain of NEO1 (AAH54540, aa: 41-1107) (receptor)
chain: GAAATKSGSPPQSAGASVRTFTPFYFLVEPVDTLSVRGSSVILNCSAYSEPSPNIEWKKDGTFLNLESDDRRQLLPDGSLFISNVVHSKHNKPDEGFYQCVATVDNLGTIVSRTAKLTVAGLPRFTSQPEPSSVYVGNSAILNCEVNADLVPFVRWEQNRQPLLLDDRIVKLPSGTLVISNATEGDGGLYRCIVESGGPPKFSDEAELKVLQDPEEIVDLVFLMRPSSMMKVTGQSAVLPCVVSGLPAPVVRWMKNEEVLDTESSGRLVLLAGGCLEISDVTEDDAGTYFCIADNGNKTVEAQAELTVQVPPGFLKQPANIYAHESMDIVFECEVTGKPTPTVKWVKNGDVVIPSDYFKIVKEHNLQVLGLVKSDEGFYQCIAENDVGNAQAGAQLIILEHDVAIPTLPPTSLTSATTDHLAPATTGPLPSAPRDVVASLVSTRFIKLTWRTPASDPHGDNLTYSVFYTKEGVARERVENTSQPGEMQVTIQNLMPATVYIFKVMAQNKHGSGESSAPLRVETQPEVQLPGPAPNIRAYATSPTSITVTWETPLSGNGEIQNYKLYYMEKGTDKEQDIDVSSHSYTINGLKKYTEYSFRVVAYNKHGPGVSTQDVAVRTLSDVPSAAPQNLSLEVRNSKSIVIHWQPPSSTTQNGQITGYKIRYRKASRKSDVTETLVTGTQLSQLIEGLDRGTEYNFRVAALTVNGTGPATDWLSAETFESDLDETRVPEVPSSLHVRPLVTSIVVSWTPPENQNIVVRGYAIGYGIGSPHAQTIKVDYKQRYYTIENLDPSSHYVITLKAFNNVGEGIPLYESAVTRPHTVPDPTPMMPPVGVQASILSHDTIRITWADNSLPKHQKITDSRYYTVRWKTNIPANTKYKNANATTLSYLVTGLKPNTLYEFSVMVTKGRRSSTWSMTAHGATFELVPTSPPKDVTVVSKEGKPRTIIVNWQPPSEANGKITGYIIYYSTDVNAEIHDWVIEPVVGNRLTHQIQELTLDTPYYFKIQARNSKGMGPMSEAVQFRTPKALGSAGKGSRLPDLGSDYKPPMSGSNSPHGSPTSPLDSN
